Experimental data published in US20150216795A1 (SANOFI, priority 2012, published 2015).

Experiments:
[1] = tested on: patients with metastatic colorectal cancer (MCRC); test: EFC10262 (VELOUR) randomized double-blind phase 3 study: efficacy (OS, PFS, response rate);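 note: Placebo-controlled comparison, both arms on FOLFIRI every 2 weeks until progression or intolerable toxicity, in patients progressing on or within 6 months after oxaliplatin-based combination chemotherapy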
Text: Each randomized patient was to be treated until disease progression, death, or unacceptable toxicity. […] The predefined statistical significance level for this final analysis was 0.0466 after adjusting the type I error spent for the two interim analyses using the O'Brien-Fleming spending function.
The study included one formal interim analysis, planned for the purpose of efficacy, when 561 death events (65% information time) had occurred. Upon request of the independent Data Monitoring Committee (DMC), an additional interim analysis of OS was performed to provide an early evaluation of the benefit-risk ratio, when 315 death events (36.5% information fraction) had occurred.
A total of approximately 863 deaths were required to detect 20% hazard rate reduction in OS with 90% power using the two-sided log rank test at an overall 0.0499 alpha level. The median survival times was expected to be 11 months for the control group. The overall alpha level was split between overall survival (0.0499) and progression-free survival as a secondary efficacy endpoint (0.0001).
Approximately 1200 patients (i.e. 600 patients per treatment group) were planned to be randomized. Treatment assignment was stratified according to prior therapy with bevacizumab (yes or no), and ECOG performance status (PS) (0 vs 1 vs 2).
The enrolment started in November 2007 and was completed in March 2010. A total of 1226 patients were randomized. […] Treatment arms were evenly balanced for demographics, disease characteristics and prior anti-cancer treatments, including prior exposition to bevacizumab.
Immediately after, patients received irinotecan, 5-FU and leucovorin (FOLFIRI regimen). This treatment was repeated every 2 weeks.
Study 1 was a randomized, double-blind, placebo-controlled study in patients with metastatic colorectal cancer (mCRC) who are resistant to or have progressed during or within 6 months of receiving oxaliplatin-based combination chemotherapy, with or without prior bevacizumab. A total of 1226 patients were randomized (1:1) to receive either ZALTRAP (N=612; 4 mg per kg as a 1 hour intravenous infusion on day 1) or placebo (N=614), in combination with 5-fluorouracil plus irinotecan [FOLFIRI: irinotecan 180 mg per m2 IV infusion over 90 minutes and leucovorin (dl racemic) 400 mg per m^2 intravenous infusion over 2 hours at the same time on day 1 using a Y-line, followed by 5-FU 400 mg per m^2 intravenous bolus, followed by 5-FU 2400 mg per m^2 continuous intravenous infusion over 46-hours]. The treatment cycles on both arms were repeated every 2 weeks. Patients were treated until disease progression or unacceptable toxicity. The primary efficacy endpoint was overall survival. Treatment assignment was stratified by the ECOG performance status (0 versus 1 versus 2) and according to prior therapy with bevacizumab (yes or no).

[2] = tested on: patients with metastatic colorectal cancer (MCRC)
Text: Each randomized patient was to be treated until disease progression, death, or unacceptable toxicity.
Treatment arms were evenly balanced for demographics, disease characteristics and prior anti-cancer treatments, including prior exposition to bevacizumab.
Patients received a median of 9 cycles of ZALTRAP/FOLFIRI or 8 cycles of placebo/FOLFIRI.

[3] = Kaplan-Meier, IRC, ITT population
[4] = by IRC, evaluable patient population N = 531
[5] = overall survival, Kaplan-Meier, ITT population
[6] = adverse reaction, N = 611, listed as ZALTRAP/FOLFIRI
[7] = compilation of clinical and laboratory data, N = 611, listed as ZALTRAP/FOLFIRI

## Ziv-aflibercept/Folfiri: ziv-aflibercept 4 mg/kg in combination with FOLFIRI (folinic acid, 5-fluorouracil and irinotecan) given intravenously every 2 weeks
[1]; [3]
  PFS, Probability of surviving (99.99% CI), 3 months: 0.793
  PFS, Probability of surviving (99.99% CI), 6 months: 0.573
  PFS, Probability of surviving (99.99% CI), 9 months: 0.313
  PFS, Probability of surviving (99.99% CI), 12 months: 0.166
  PFS, Probability of surviving (99.99% CI), 18 months: 0.051
[1]; Study 1, IRC
  Progression Free Survival: Number of events, n (%): 393 (64.2%) n (%)
[1]; Study 1, N = 612
  Overall Survival: Number of deaths, n (%): 403 (65.8%) n (%)
[1]; [4]
  Best Overall Response: Not evaluable, %: (4.0%)
  Best Overall Response: Partial response, %: (19.8%)
  Best Overall Response: Progressive disease, %: (10.4%)
  Best Overall Response: Stable disease, %: (65.9%)
  Overall Response: Responders (Complete response or Partial response), %: (19.8%)
[1]; [5]
  Survival probability (95.34% CI), 3 months: 0.931
  Survival probability (95.34% CI), 6 months: 0.819
  Survival probability (95.34% CI), 9 months: 0.687
  Survival probability (95.34% CI), 12 months: 0.561
  Survival probability (95.34% CI), 18 months: 0.385
  Survival probability (95.34% CI), 24 months: 0.280
[1]; patients who received prior bevacizumab
  overall survival HR (95% CI): 0.86
[1]; patients without prior bevacizumab exposure
  overall survival HR (95% CI): 0.79
[2]; 1 patient
  Grade 4 hypertension (hypertensive crisis): 0.2%
[2]; 2 patients
  Grade 3 compromised wound healing: 0.3%
  Nephrotic syndrome: 0.5%
[2]; 9 of 611 patients with mCRC
  fistulas (anal, enterovesical, enterocutaneous, colovaginal, intestinal sites): 1.5%
[2]; 11 patients
  Grade 3-4 ATE: 1.8%
[2]; Safety population N = 611
  Patients with any TEAE: 606 (99.2%) number (%) of patients
  Patients with any TEAE leading to death: 37 (6.1%) number (%) of patients
  Patients with any TEAE leading to permanent treatment discontinuation: 164 (26.8%) number (%) of patients
  Patients with any TEAE leading to premature treatment discontinuation: 119 (19.5%) number (%) of patients
  Patients with any grade 3-4 TEAE: 510 (83.5%) number (%) of patients
  Patients with any related TEAE leading to death: 6 (1.0%) number (%) of patients
  Patients with any serious TEAE: 294 (48.1%) number (%) of patients
[2]; Study 1
  Cycle delays >7 days: 60 % of patients
  Infections, Grade 3-4: 12%
  Infections, all grades: 46%
[2]; TEAE, safety population
  Alopecia (PT), All Gr: 26.8 % of patients
  Asthenic condition (HLT), All Gr: 60.4 % of patients
  Asthenic condition (HLT), Gr 3/4: 16.9 % of patients
  Constipation (PT), All Gr: 22.4 % of patients
  Constipation (PT), Gr 3/4: 0.8 % of patients
  Decrease appetite (PT), All Gr: 31.9 % of patients
  Decrease appetite (PT), Gr 3/4: 3.4 % of patients
  Dehydration (PT), All Gr: 9.0 % of patients
  Diarrhea (PT), All Gr: 69.2 % of patients
  Dysphonia (PT), All Gr: 25.4 % of patients
  Epistaxis (PT), All Gr: 27.7 % of patients
  GI and abdominal pains (HLT), All Gr: 34.0 % of patients
  GI and abdominal pains (HLT), Gr 3/4: 5.4 % of patients
  Headache (PT), All Gr: 22.3 % of patients
  Hypertension (grouping), All Gr: 41.4 % of patients
  Hypertension (grouping), Gr 3/4: 19.3 % of patients
  Infections (SOC), All Gr: 46.2 % of patients
  Musculoskeletal & connective pain & discomfort (HLT), All Gr: 23.1 % of patients
  Musculoskeletal & connective pain & discomfort (HLT), Gr 3/4: 1.3 % of patients
  Nausea (PT), All Gr: 53.4 % of patients
  Palmar plantar erythrodysaesthesia (PT), All Gr: 11.0 % of patients
  Palmar plantar erythrodysaesthesia (PT), Gr 3/4: 2.8 % of patients
  Skin hyperpigmentation (PT), All Gr: 8.2 % of patients
  Skin hyperpigmentation (PT), Gr 3/4: 0 % of patients
  Stomatitis & ulceration (HLT), All Gr: 54.8 % of patients
  Stomatitis & ulceration (HLT), Gr 3/4: 13.7 % of patients
  Vomiting (PT), All Gr: 32.9 % of patients
  Weight decrease (PT), All Gr: 31.9 % of patients
  Weight decrease (PT), Gr 3/4: 2.6 % of patients
[2]; adverse reaction, N = 611
  Abdominal Pain Upper, All grades: 11%
  Abdominal Pain Upper, Grades 3-4: 1%
  Abdominal Pain, All grades: 27%
  Abdominal Pain, Grades 3-4: 4%
  Asthenia, All grades: 18%
  Asthenia, Grades 3-4: 5%
  Decreased Appetite, All grades: 32%
  Decreased Appetite, Grades 3-4: 3%
  Dehydration, All grades: 9%
  Diarrhea, All grades: 69%
  Dysphonia, All grades: 25%
  Dyspnea, All grades: 12%
  Epistaxis, All grades: 28%
  Fatigue, All grades: 48%
  Fatigue, Grades 3-4: 13%
  Headache, All grades: 22%
  Headache, Grades 3-4: 2%
  Hemorrhoids, All grades: 6%
  Hemorrhoids, Grades 3-4: 0%
  Hypertension, All grades: 41%
  Hypertension, Grades 3-4: 19%
  Leukopenia, All grades: 78%
  Leukopenia, Grades 3-4: 16%
  Neutropenia, All grades: 67%
  Oropharyngeal Pain, All grades: 8%
  Palmar-Plantar Erythrodysesthesia Syndrome, All grades: 11%
  Palmar-Plantar Erythrodysesthesia Syndrome, Grades 3-4: 3%
  Proctalgia, All grades: 5%
  Rectal Hemorrhage, All grades: 5%
  Rhinorrhea, All grades: 6%
  Rhinorrhea, Grades 3-4: 0%
  Skin Hyperpigmentation, All grades: 8%
  Skin Hyperpigmentation, Grades 3-4: 0%
  Stomatitis, All grades: 50%
  Stomatitis, Grades 3-4: 13%
  Thrombocytopenia, All grades: 48%
  Thrombocytopenia, Grades 3-4: 3%
  Urinary Tract Infection, All grades: 9%
  Weight decreased, All grades: 32%
  Weight decreased, Grades 3-4: 3%
[2]; [6]
  Dehydration, Grades 3-4: 4%
  Diarrhea, Grades 3-4: 19%
  Neutropenia, Grades 3-4: 37%
[2]; among patients developing Grade 3-4 hypertension
  onset of Grade 3-4 hypertension during the first two cycles of treatment: 54%
[2]; [7]
  Proteinuria, All grades: 62%
  Proteinuria, Grades 3-4: 8%
[2]; including gastrointestinal hemorrhage, hematuria, post-procedural hemorrhage
  Grade 3-4 hemorrhagic events: 3%
[2]; laboratory finding, N = 611
  ALT increased, All grades: 50%
  ALT increased, Grades 3-4: 3%
  AST increased, All grades: 62%
  AST increased, Grades 3-4: 3%
  Serum creatinine increased, All grades: 23%
  Serum creatinine increased, Grades 3-4: 0%
[2]; patients with mCRC
  Arterial thromboembolic events (ATE): 2.6%
  Grade 3-4 VTE: 8%
  Grade 3-4 febrile neutropenia: 4%
  Grade 3-4 neutropenic infection/sepsis: 1.5%
  Grade 3 hypertension: 19%
  Pulmonary embolism: 5%
  bleeding/hemorrhage (all grades): 38%
  severe hypersensitivity reactions: 0.3%
  venous thromboembolic events (VTE): 9%
